This data set in a line: label from the status in PepcDB records.

The results in this text go back to a protein production outcome set (Wang et al. 2014).

In the case of “MGHHHHHHSHLSPDRRASLLTSLMLVKRDYRYDRVLFWGRILGLVADYYIAQGLSEDQLAPRKTLYSLNCTEWSLLPPATEEMVAQSSVVKGRFMGDPSYEYEHTELQKVNEGEKVFEEEIVVQIKEETRLVSVIDQIDKAVAIIPRGALFKTPFGPTHVNRTFEGLSLSEAKKLSSYFHFREPVELKNKTLLEKADLDPSLDFMDSLEHDIPKGSWSIQMERGNALVVLRSLLWPGLTFYHAPRTKNYGYVYVGTGEKNMDLPFML”, the protein production result is reported as “failed”.

Turning to “MGHHHHHHSHMAFVTRQFMRSVSSSSTASASAKKIIVKHVTVIGGGLMGAGIAQVAAATGHTVVLVDQTEDILAKSKKGIEESLRKVAKKKFAENPKAGDEFVEKTLSTIATSTDAASVVHSTDLVVEAIVENLKVKNELFKRLDKFAAEHTIFASNTSSLQITSIANATTRQDRFAGLHFFNPVPVMKLVEVIKTPMTSQKTFESLVDFSKALGKHPVSCKDTPGFIVNRLLVPYLMEAIRLYERGDASKEDIDTAMKLGAGYPMGPFELLDYVGLDTTKFIVDGWHEMDAENPLHQPSPSLNKLVAENKFGKKTGEGFYKYK”, the protein production result is recorded as “not failed”. Regarding “MGHHHHHHSHMAQPLACARGRSQRLVCDPKAASALPDLAPDVFVLRVRLEETGEMFRVANCRGDMTVRELKEELDLMVGIPFNLQRLQYLDEGVLMDDTTLKFHDVVPGGIISLCIWHHDGWTEL”, the protein production result is recorded as “failed”. The same measure for “MGHHHHHHSHMDALSPSPAIPSNTDYPGPHSFDVSFQQSSTAKSATWTYSTELKKLYCQIAKTCPIQIKVMTPPPQGAVIRAMPVYKKAEHVTEVVKRCPNHELSREFNEGQIAPPSHLIRVEGNSHAQYVEDPITGRQSVLVPYEPPQVGTEFTTVLYNFMCNSSCVGGMNRRPILIIVTLETRDGQVLGRRCFEARICACPGRDRKADEDSIRKQQVSDSTKNGDGTKRPFRQNTHGIQM”: “failed”; for “MGHHHHHHSHMDNHNPMKDIEVTSSPDDSIGCLSFSPPTLPGNFLIAGSWANDVRCWEVQDSGQTIPKAQQMHTGPVLDVCWSDDGSKVFTASCDKTAKMWDLSSNQAIQIAQHDAPVKTIHWIKAPNYSCVMTGSWDKTLKFWDTRSSNPMMVLQLPERCYCADVIYPMAVVATAERGLIVYQLENQPSEFRRIESPLKHQHRCVAIFKDKQNKPTGFALGSIEGRVAIHYINPPNPAKDNFTFKCHRSNGTNTSAPQDIYAVNGIAFHPVHGTLATVGSDGRFSFWDKDARTKLKTSEQLDQPISACCFNHNGNIFAYASSYDWSKGHEFYNP”: “failed”. The same measure for “MGHHHHHHSHMDSHDLQRFLSDFRDLMSWINGIRGLVSSDELAKDVTGAEALLERHQEHRTEIDARAGTFQAFEQFGQQLLAHGHYASPEIKQKLDILDQERADLEKAWVQRRMMLDQCLELQLFHRDCEQAENWMAAREAFLNTEDKGDSLDSVEALIKKHEDFDKAINVQEEKIAALQAFADQLIAAGHYAKGDISSRRNEVLDRWRRLKAQMIEKR”: “not failed”; for “MGHHHHHHSHMGKGTFVYRTTITSPHEEVWAFFSSPTNLQTLTKIPKVVLDSTSETTQGSEIEMKLFVLGIPFQWKAYIEAYNPPFSFTDVAIKMPFPIVYWRHTHRFTTEGERTVMIDEIQYEIKMANKLVIFFLRRMFRARESALHRYFQS”: “not failed”; for “MGHHHHHHSHMKEDQKNKIPEDILKQLLSVDPETVYASGYASWQEGDYSRAVIDFSWLVMAQPWSWRAHIALAGTWMMLKEYTTAINFYGHALMLDASHPEPVYQTGVCLKMMGEPGLAREAFQTAIKMSYADASWSEIRQNAQKMVDTLIA”: “failed”. The same measure for “MGHHHHHHSHMKLVTRSCDPGEKLDSKIGVLIGKGLHEFDSLKDPEVNEFRRKMRKFSEEKILSLVGLSWMDWLKQTYPPEHEPSIPENLEDKLYGGKLIVAVHFENCQDVFSFQVSPNMNPIKVNELAIQKRLTIHGKEDEVSPYDYVLQVSGRVEYVFGDHPLIQFQYIRNCVMNRALPHFILVECCKIKK”: “failed”; for “MGHHHHHHSHMKMEHQNKRSPLHAAAEAGHVDICHMLVQAGANIDTCSEDQRTPLMEAAENNHLEAVKYLIKAGALVDPKDAEGSTCLHLAAKKGHYEVVQYLLSNGQMDVNCQDDGGWTPMIWATEYKHVDLVKLLLSKGSDINIRDNEENICLHWAAFSGCVDIAEILLAAKCDLHAVNIHGDSPLHIAARENRYDCVVLFLSRDSDVTLKNKEGETPLQCASLNSQV”: “failed”. As to “MGHHHHHHSHMLVDNLYRVVSNQKDAAVIRVHLEVNASHEIFKGHFPEVPVLPGVCMVQCIKELIEESLLVKTQIDKGDMIKFLSMLNPVESNSIQAEISIKEKTETRIVFQATLKNEDRFLLKYSGSLVVLN”, the protein production entry is “failed”. The same measure for “MGHHHHHHSHMPRGPAGEAGASPPVRRVRVVKQEAGGLGISIKGGRENRMPILISKIFPGLAADQSRALRLGDAILSVNGTDLRQATHDQAVQALKRAGKEVLLEVKFIREVT”: “failed”; for “MGHHHHHHSHMSSRGHSTLPRTLMAPRMISEGDIGGIAQITSSLFLGRGSVASNRHLLQARGITCIVNATIEIPNFNWPQFEYVKVPLADMPHAPIGLYFDTVADKIHSVSRKHGATLVHCAAGVSRSATLCIAYLMKFHNVCLLEAYNWVKARRPVIRPNVGFWRQLIDYERQLFGKSTVKMVQTPYGIVPDVYEKESRHLMPYWGI”: “failed”. “MGHHHHHHSHMSYARVRAVVMTRDDSSGGWLPLGGSGLSSVTVFKVPHQEENGCADFFIRGERLRDKMVVLECMLKKDLIYNKVTPTFHHWKIDDKKFGLTFQSPADARAFDRGIRRAIEDISQGCPESK”: the protein production result is “not failed”.

For the sequence “MGHHHHHHSHMTKIIPVASGKGGVGKTSFVANVGYKLSSLGKTVILVDLDLGGSNLHTCLGVKNKGVGIGSFINKKSKSFSDLVCKTSYDKLYLIPGDALYTGTANLPFSIKKKIIESIQKDLIADFIFLDLGSGTSYNTIDFYLASYSGVIVTIPETPSILNAYSFLKNALYRLLYLGFP”, the protein production entry was “failed”.

Take “MGHHHHHHSHMTKLPPIEQLLPHDKPMILVDRAMDIQQDTIHCQVDIAEHNPFFDSASQTVPAYVGIEFMAQSVAAWSGYHALMKEQAPPIGFLLGSRRYTSECDAFSRGQMLDVYAEKVMEDNGMAVFSARIELQGTVVATCQLNVYVPSEEKLQEMKIRSQQ”: the protein production result is given as “not failed”. The same measure for “MGHHHHHHSHNSSSCPEIQGFLHVKELGKKSWKKLYVCLRRSGLYCSTKGTSKEPRHLQLLADLEDSNIFSLIAGRKQYNAPTDHGLCIKPNKVRNETKELRLLCAEDEQTRTCWMTAFRLLKYGMLLYQNYRIPQQRKALLSPFSTPVRSVSENSLVAMDFSGQTGRVIENPAEAQSAALEEGHAWRKRSTRMNILGSQSPLHPSTLSTVIHRTQ”: “failed”. The same measure for “MGHHHHHHSHPAEYNISPETRRAQAERLAIRAQLKREYLLQYNDPNRRGLIENPALLRWAYARTINVYPNFRPTPKNSLMGALCGFGPLIFIYYIIKTERDRKEKLIQEGKLDRTFHLSY”: “failed”.

Turning to “MGHHHHHHSHRPESFFQQSFQRLSRLGHGSYGEVFKVRSKEDGRLYAVKRSMSPFRGPKDRARKLAEVGSHEKVGQHPCCVRLEQAWEEGGILYLQTELCGPSLQQHCEAWGASLPEAQVWGYLRDTLLALAHLHSQGLVHLDVKPANIFLGPRGRCKLGDFGLLVELGTAGAGEVQEGDPRYMAPELLQGSYGTAADVFSLGLTILEVACNMELPHGGEGWQQLRQGYLPPEFTAGLSSELRSVLVMMLEPDPKLRATAEALLALPVLRQPRAWGVLWCMAAEALSRG”, the protein production entry is “failed”. The same measure for “MGHHKAMPYADVAAFIIELRKREAVAATALEFTILTAARSGETLGAKWHEIDWKDKIWTVPAERMKAAREHRVPLSSRTITILKKLAEFGSDENSFVFPGQKPGKPLSVMAMDMVLRRMEVDVTVHGFRSSFRDWCGEVSNFPRDVAEAALAHVVGDKTERAYRRGDALEKRRKLMAAWEKFCIAEIKKNPLEHHHHHH”: “failed”; for “MGIENFTAKIVGLSIVSLLVVLMFLYKLIYIIPLIFIVLLVFQSEKKIFAFLSKNTKQIQPYSIEDGVFYNEKNASAVLIIDDIQMDYKDFTNSNLRSFISSFHKILDIAKDINIVLKRESLDKNVYIESLSQKIQALRIMIDSDPSNEKAKRKLELMETIISRIESGENPFRYEMYIIINSRDKNSALSTASMIRQGLEGLGIKTRLATLHEIQKLVRDFFHSKLNLNKIALPTQIPYLTPISVEKKPKSSIIIDGVLLGKDINNNGLVFWNITKSQNSHLLIVGPTGSGKTEFLIWLSTILNLIYGGTVILFDVKGDIKYRLSMYKVPFQLINPLFYRLGLLDEYDIPIRIKLLQIEKILLNSFRLSKFNSSILYNYLNRLIDISYLKYRIKWKDLEKYLSEIDDVQLKYYLSKLINILSSMEDSELPPLLHGVNENEINLIDLTLIKSEEIKRLIIYTLIQELYNKFSLEKIYDKPRVFLVLDEAWTILKNESEDYPIVADLIKRGRGYGISIIMATQNLEDLGDLANIYLDNIGVSVFMNNGDKKFWEEIRRFVNVDNDTLSNNLIFMNRGEALVRFLGDPRPVIIKLNTLAGSSF”: “failed”. On to “MGIFERYLSVWVGLSIILGVILGLWQPNIFQLITEFEIAHVNIVVAVFIWVMIYPMMVQIDFSSIQNVGKNPKGLVLTIIINWFVKPFTMAALGWLFFNYLFADLVDPESAQEYIAGMILLGVAPCTAMVFVWSQLTKGDPNYTLVQVSVNDVIMIFAFAPISAFLLGVSDIQVPWETLLISVLLYVLLPLIAGVVTRRMLNKGNDKVDAQKSAEASINADEETNTNTDSTNKSLDNLLATLKPWSVIGLLATVVLLFGFQANTIISEPQTIGLIAIPLMIQTYGIFIIAYLAAKWLKLPHNIAAPACLIGTSNFFELAVAVAISLFGLHSGAALATVVGVLVEVPVMLSLVYFINHTQNWFVEGG”, for which the protein production result is listed as “failed”. Turning to “MGIKNDLEIRLQKLQQQGNFKNYLEQYPTDASTAAYFLIEIYNDGNIGGRSVIDAGTGNGILACGSYLLGAESVTAFDIDPDAIETAKRNCGGVNFMVADVSEISGKYDTWIMNPPFGSVVKHSDRAFIDKAFETSMWIYSIGNAKARDFLRREFSARGDVFREEKVYITVPRIYRHHSYDRARIEAVIFGVRNHSF”, the protein production entry was “not failed”.

Take “MGISPDAASKLYTVKFQPDPIDKKGWSVIDFNNCCTQDGGWYLNMGWGVESLIDNNPGTQWLCRWDVKEPLPYYFVFDMGKEYTLFRFGFANPVAPAAHVWAGTSKAGYVEASIDNENWVKLKDWTSPKIGEPNVNMDVPATQARYIRFVITDTYPTYDGLRVSLGEVYAWGLEHHHHHH”: the protein production result is given as “not failed”. The same measure for “MGISTNHTTFDGLSFKTFLENLASLLHEKPLSTPPCNDRTLLKARDPPSVAFPHHELVKFQDCETTTVFEATSEHLDFKIFKLSSEQIKKLKERASETSNGNVRVTGFNVVTALVWRCKALSVAAEEGEETNLERESTILYAVDIRGRLNPELPPSYTGNAVLTAYAKEKCKALLEEPFGRIVEMVGEGSKRITDEYARSAIDWGELYKGFPHGEVLVSSWWKLGFAEVEYPWGKPKYSCPVVYHRKDIVLLFPDIDGDSKGVYVLAALPSKEMSKFQHWFEDTLC”: “failed”; for “MGKEERAKWVNDEYAKAYEKMKSYGEQVKKADKPRVLYLKRSDLTLQGNDNFIKESMELAGADNIAAEAKSITMEEILKLDPEIILLSDFDKFLPQDLYENRIEGQDWSSVSAVVNKRVYKTPVGIYRWDAPGVETPLMMFWLGKMLQPEILEHHHHHH”: “failed”. Then “MGKEIEIERKTLVSKETFKRLISQLHIGEGDFKLQRNHYFETDDFQLKKQSSALRIREKEAIFTFTLKQPHPAGLLETNQTLSKQEAKLALESAHFPSGEVMDALRDLSIPISQLKHIGTLSTSRAEISYEQGILCLDHSSYLGIEDYEIEFEGTSEEHATVTFQEILKTFSISQVPTENKIQRFFSKKEKN”, with “not failed”.
